In US20250277030A1, “ANTI-NAPI2B ANTIBODIES AND METHODS OF USE” (Zymeworks BC Inc., priority 2022, published 2025):

Experiments:
mouse NaPi2b = target: T1, mouse NaPi2b (Mus musculus, UniProt Q9DBP0); test: Flow cytometry binding to HEK293-6e cells transfected with mouse NaPi2b (Example 5); settings: transfected HEK293-6e cells
T1 construct: expressed in transfected cells; host or cells: HEK293-6e
T1 sequence (Q9DBP0 1-697): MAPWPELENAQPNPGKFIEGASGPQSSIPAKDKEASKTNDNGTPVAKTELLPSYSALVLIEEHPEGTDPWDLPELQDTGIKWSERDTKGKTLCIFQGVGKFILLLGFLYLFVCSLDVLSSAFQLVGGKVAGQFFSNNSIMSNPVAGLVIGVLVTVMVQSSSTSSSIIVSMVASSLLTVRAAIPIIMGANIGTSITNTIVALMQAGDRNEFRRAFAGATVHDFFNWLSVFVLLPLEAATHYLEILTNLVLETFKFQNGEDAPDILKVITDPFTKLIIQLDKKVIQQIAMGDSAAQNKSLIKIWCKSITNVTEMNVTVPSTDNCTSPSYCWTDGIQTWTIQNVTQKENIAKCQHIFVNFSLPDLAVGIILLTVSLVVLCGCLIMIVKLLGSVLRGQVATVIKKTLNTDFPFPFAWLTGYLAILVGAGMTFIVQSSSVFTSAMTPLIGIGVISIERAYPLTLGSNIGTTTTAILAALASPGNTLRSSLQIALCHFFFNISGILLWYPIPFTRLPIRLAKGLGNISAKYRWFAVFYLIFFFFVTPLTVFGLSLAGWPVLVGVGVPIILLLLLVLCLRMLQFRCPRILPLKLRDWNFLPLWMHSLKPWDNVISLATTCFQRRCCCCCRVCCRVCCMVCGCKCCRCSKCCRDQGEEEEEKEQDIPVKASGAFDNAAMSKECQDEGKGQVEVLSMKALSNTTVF
Procedure: (§1) The binding cross-reactivity of humanized antibody variant v29456 to human, cynomolgus and mouse NaPi2b was assessed by flow cytometry using HEK293-6e transfected cells.
(§2) Briefly, HEK293-6e cells were transfected for ˜24 hours to transiently express human NaPi2b, cynomolgus or mouse NaPi2b, at 1 μg of DNA per 1 million cells. Following transfection, 50,000 cells per well were seeded in V-bottom 96-well plates and incubated with 200 nM of primary antibody for 18-24 hours at 4° C. to prevent internalization. Post-incubation, cells were washed and stained with anti-Human IgG Fc AF647 conjugate (Jackson Immuno Research Labs, West Grove, PA, Cat. No. 109-605-098, Lot. No. 124868) at 4° C. for 1 hour. Following staining and washing, fluorescence was detected by flow cytometry on BD LSRFortessa™ Cell Analyzer (BD Biosciences, Franklin Lake, NJ) with 10,000 minimum events collected per well. The AF647/APC-A GeoMean (fluorescence signal geometric mean, proportional to anti-Human AF647 binding) was calculated for the live singlet cell population for each primary antibody using FlowJo™ v8 software (BD Biosciences, Franklin Lake, NJ). The Bmax and Kd of each primary antibody were calculated using GraphPad Prism Version 9 (GraphPad Software, San Diego, CA)

human NaPi2b = target: T2, human NaPi2b (Homo sapiens, UniProt O95436); test: Flow cytometry binding to HEK293-6e cells transfected with human NaPi2b (Example 5); settings: transfected HEK293-6e cells
T2 construct: host or cells: HEK293-6e
T2 sequence (O95436 1-690): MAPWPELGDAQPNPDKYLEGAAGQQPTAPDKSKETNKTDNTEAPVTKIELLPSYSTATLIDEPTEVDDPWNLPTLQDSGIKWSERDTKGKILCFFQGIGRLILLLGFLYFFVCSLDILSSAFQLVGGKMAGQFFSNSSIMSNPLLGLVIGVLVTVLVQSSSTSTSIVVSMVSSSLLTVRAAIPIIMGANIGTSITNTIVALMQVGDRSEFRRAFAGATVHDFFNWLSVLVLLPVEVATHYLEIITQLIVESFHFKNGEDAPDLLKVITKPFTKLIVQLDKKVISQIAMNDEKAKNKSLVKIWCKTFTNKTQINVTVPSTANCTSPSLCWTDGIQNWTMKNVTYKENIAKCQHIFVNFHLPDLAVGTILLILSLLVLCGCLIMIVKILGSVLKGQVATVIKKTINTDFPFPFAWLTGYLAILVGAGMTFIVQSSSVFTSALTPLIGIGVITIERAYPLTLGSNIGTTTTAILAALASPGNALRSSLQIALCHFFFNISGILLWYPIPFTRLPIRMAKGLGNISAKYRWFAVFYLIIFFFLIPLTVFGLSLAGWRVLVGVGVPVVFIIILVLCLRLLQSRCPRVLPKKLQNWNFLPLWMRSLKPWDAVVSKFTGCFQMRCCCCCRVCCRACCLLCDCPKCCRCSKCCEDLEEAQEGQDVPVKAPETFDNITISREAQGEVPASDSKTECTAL
Procedure: as §1, §2

Substance: v22277: anti-RSV antibody palivizumab, negative control; has a heterodimeric Fc [reference compound]
- Binding to mouse NaPi2b, in words (mouse NaPi2b): did not bind
- Binding to human NaPi2b, in words (human NaPi2b): did not bind
